Patent US6380373B1, “Steroid receptor coactivator compositions and methods of use” (Baylor College of Medicine, priority 1995, dated 2002)

Assays:
CREB = assay: CAT reporter assay CREB/CRE-tk-CAT in HeLa cells, with and without forskolin; format: cell-based; conditions: without and with 1 μM forskolin
Protocol: (§1) Lipofectin (GibcoBRL) was selected for transfection of Hela cells.
(§2) The CAT activity of the reporter was determined.

RXR = molecular target: T1, RXR (Mus musculus, UniProt P28704); assay: CAT reporter assay RXR/DR1-tk-CAT in HeLa cells; format: cell-based; conditions: 3 μg SRC-1, 9-cis retinoic acid 2×10^−8 M
T1 construct: expressed in transfected cells; host or cells: HeLa
T1 sequence (P28704 1-520): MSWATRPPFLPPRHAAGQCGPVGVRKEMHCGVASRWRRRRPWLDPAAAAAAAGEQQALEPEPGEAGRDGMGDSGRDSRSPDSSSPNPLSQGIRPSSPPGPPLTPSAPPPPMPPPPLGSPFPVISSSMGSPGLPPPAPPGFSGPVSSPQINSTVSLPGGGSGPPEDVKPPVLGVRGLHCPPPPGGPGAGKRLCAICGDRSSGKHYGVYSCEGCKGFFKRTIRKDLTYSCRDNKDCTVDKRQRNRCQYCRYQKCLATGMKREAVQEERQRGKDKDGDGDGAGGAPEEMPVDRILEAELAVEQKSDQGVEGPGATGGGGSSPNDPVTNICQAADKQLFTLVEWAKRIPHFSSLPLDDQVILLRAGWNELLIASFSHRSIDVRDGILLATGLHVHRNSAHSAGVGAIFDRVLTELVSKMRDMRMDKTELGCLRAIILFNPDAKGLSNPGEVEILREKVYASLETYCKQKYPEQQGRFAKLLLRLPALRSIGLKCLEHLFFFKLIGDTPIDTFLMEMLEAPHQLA
Protocol: Biol. 13, 6501-6508), Sp1 and Sp1-tk-CAT (Courey, A. J. and Tjian, R. (1988), Cell 55, 887-898), CREB and CRE-tk-CAT (Chrivia, J. C. et al., (1993), Nature 365, 855) and GAL4VP16 and 17mer-tk-CAT (Baniahmad, A. et al., (1992), EMBO J. 11, 1015-1023) have been previously described and the above references are incorporated herein by reference in their entirety, including any drawings.
as §1
HeLa cells were cotransfected with 0.5 μg of cDNAs encoding various steroid receptors indicated and 5 μg of their cognates HREs containing reporters, including PR/PRE2-TATA-CAT, ER/ERE2-TATA-CAT, GR/PRE2-TATA-CAT, TR-/DR4-tk-CAT and RXR/DR1-tk-CAT, along with 3 μg of SRC-1 or empty expression vector. Cells were then treated with their corresponding ligands (PR:R5020, ER:estradiol, GR:dexamethasone, TR:Triac, RXR:9-cis retinoic acid) at a concentration of 2×10^−8M. The CAT activity of the reporter was determined using 14 μg of protein extract.

hPR = molecular target: T2, hPR (Homo sapiens, UniProt P06401); assay: Transient transfection CAT reporter assay, hPRB with PRE2-TATA-CAT in HeLa cells; format: cell-based
T2 construct: expressed in transfected cells; host or cells: HeLa
T2 sequence (P06401 1-933): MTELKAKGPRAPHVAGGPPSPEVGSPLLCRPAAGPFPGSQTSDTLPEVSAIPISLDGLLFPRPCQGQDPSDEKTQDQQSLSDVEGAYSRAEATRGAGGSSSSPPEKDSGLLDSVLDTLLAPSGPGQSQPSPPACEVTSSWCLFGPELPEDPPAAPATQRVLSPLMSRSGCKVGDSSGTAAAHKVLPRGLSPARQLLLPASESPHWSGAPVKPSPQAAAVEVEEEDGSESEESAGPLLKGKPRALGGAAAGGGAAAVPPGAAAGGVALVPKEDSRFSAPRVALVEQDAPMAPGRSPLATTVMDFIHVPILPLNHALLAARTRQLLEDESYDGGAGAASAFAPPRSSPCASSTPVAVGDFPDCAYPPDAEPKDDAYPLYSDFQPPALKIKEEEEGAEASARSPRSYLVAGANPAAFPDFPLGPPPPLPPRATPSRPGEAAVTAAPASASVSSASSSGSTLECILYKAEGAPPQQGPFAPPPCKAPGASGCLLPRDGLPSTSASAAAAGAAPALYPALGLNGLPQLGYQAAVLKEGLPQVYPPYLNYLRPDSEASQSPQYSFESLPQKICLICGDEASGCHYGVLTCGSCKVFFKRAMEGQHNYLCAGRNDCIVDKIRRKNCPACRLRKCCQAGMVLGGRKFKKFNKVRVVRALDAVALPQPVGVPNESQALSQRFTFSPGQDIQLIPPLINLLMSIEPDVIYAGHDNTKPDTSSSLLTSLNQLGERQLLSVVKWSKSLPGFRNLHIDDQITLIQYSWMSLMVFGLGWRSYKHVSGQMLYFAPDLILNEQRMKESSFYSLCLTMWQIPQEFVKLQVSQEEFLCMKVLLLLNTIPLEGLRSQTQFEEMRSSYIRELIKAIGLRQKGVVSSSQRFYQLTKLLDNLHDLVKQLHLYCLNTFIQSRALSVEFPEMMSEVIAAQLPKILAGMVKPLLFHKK
Protocol: as §1
To further investigate the role of SRC-1 in receptor transactivation of target gene expression, transient transfection assays were carried out in mammalian cell lines. HeLa cells were cotransfected with mammalian expression vectors for full-length SRC-1 and hPRB together with a plasmid containing two copies of the progesterone-responsive DNA element (PRE) inserted in front of the TATA box of the E1b adenovirus, linked to the chloramphenicol acetyl transferase (CAT) reporter gene, PRE2-TATA-CAT.
Cells were harvested 42 h after transfection and the chloramphenicol acetyl transferase (CAT) activity determined using 8 μg of protein extract.

E2F = molecular target: T3, E2F (Homo sapiens, UniProt Q01094); assay: CAT reporter assay E2F/E2F-tk-CAT in HeLa cells; format: cell-based
T3 construct: expressed in transfected cells; host or cells: HeLa
Protocol: as §1, §2

GAL4-VP16 = conditions: HeLa cells, UASG element
Protocol: Cells were maintained in Dulbecco's modified Eagle's medium supplemented with 10% (vol/vol) fetal calf serum (Smith, C. L. et al., (1993), Proc. Natl. Acad. Sci. USA 90, 6120-6124). The day before transfection, 10^6 cells were seeded in 100 mm dishes and 4-6 h later switched serum-free medium supplemented with Nutridoma-SR (Boehringer Mannhein). When ER was used for transfections, phenol-red-free medium was used (Smith, C. L. et al., (1993), Proc. Natl. Acad. Sci. USA 90, 6120-6124). HeLa cells were transfected with mammalian expression vectors encoding steroid receptors or other transcription factors along with 5 μg of CAT reporter. Lipofectin (GibcoBRL) was selected for transfection of Hela cells.
Cells were then harvested and proteins prepared as whole-cell extracts by freeze-thaw lysis. The reporter CAT activity in the extract was determined using 100 uCi of [^14C]-chloramphenicol and 4 mM acetyl coenzyme A as substrate and standardized by protein content. Activity of the extract was calculated by determining the percentage of conversion of [^14C]-chloramphenicol to the mono and diacetylated forms (Ausubel, F. M., et al., (1992), Short Protocols In Molecular Biology, New York: Greene Publishing Associates and John Wiley & Sons). […]

T3 sequence (Q01094 whole entry): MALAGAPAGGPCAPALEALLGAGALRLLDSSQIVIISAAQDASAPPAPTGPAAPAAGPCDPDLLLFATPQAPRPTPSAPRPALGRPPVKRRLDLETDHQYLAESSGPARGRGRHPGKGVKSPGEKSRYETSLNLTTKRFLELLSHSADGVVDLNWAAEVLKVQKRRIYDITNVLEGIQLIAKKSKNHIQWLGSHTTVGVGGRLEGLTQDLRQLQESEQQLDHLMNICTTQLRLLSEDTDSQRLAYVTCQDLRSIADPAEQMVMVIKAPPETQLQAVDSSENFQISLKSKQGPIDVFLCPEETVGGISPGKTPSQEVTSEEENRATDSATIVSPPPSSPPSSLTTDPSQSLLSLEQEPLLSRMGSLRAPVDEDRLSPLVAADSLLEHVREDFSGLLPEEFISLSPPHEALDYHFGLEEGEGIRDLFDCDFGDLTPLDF

B1: steroid receptor coactivator-one (SRC-1), full-length (protein)
chain: MSIPRVNPSVNPSISPAHGVARSSTLPPSNSNMVSTRINRQQSSDLHSSSHSNSSNSQGSFGCSPGSQIVANVALNKGQASSQSSKPSLNLNNPPMEGTGISLAQFMSPRRQVTSGLATRPRMPNNSFPPNISTLSSPVGMTSSACNNNNRSYSNIPVTSLQGMNEGPNNSVGFSASSPVLRQMSSQNSPSRLNIQPAKAESKDNKEIASTLNEMIQSDNSSSDGKPLDSGLLHNNDRLSDGDSKYSQTSHKLVQLLTTTAEQQLRHADIDTSCKDVLSCTGTSNSASANSSGGSCPSSHSSLTARHKILHRLLQEGSPSDITTLSVEPDKKDSASTSVSVTGQVQGNSSIKLELDASKKKESKDHQLLRYLLDKDEKDLRSTPNLSLDDVKVKVEKKEQMDPCNTNPTPMTKATPEEIKLEAQSQFTADLDQFDQLLPTLEKAAQLPGLCETDRMDGAVTSVTIKSEILPASLQSATARPTSRLNRLPELELEAIDNQFGQPGTGDQIPWTNNTVTAINQSKSEDQCISSQLDELLCPPTTVEGRNDEKALLEQLVSFLSGKDETELAELDRALGIDKLVQGGGLDVLSERFPPQQATPPLIMEERPNLYSQPYSSPFPTANLPSPFQGMVRQKPSLGTMPVQVTPPRGAFSPGMGMQPRQTLNRPPAAPNQLRLQLQQRLQGQQQLIHQNRQAILNQFAATAPVGINMRSGMQQQITPQPPLNAQMLAQRQRELYSQQHRQRQLIQQQRAMLMRQQSFGNNLPPSSGLPVQTGNPRLPQGAPQQFPYPPNYGTNPGTPPASTSPFSQLAANPEASLANRNSMVSRGMTGNIGGQFGTGINPQMQQNVFQYPGAGMVPQGEANFAPSLSPGSSMVPMPIPPPQSSLLQQTPPASGYQSPDMKAWQQGAIGNNNVFSQAVQNQPTPAQPGVYNNMSITVSMAGGNTNVQNMNPMMAQMQMSSLQMPGMNTVCPEQINDPALRHTGLYCNQLSSTDLLKTEADGTQQVQQVQVFADVQCTVNLVGGDPYLNQPGPLGTQKPTSGPQTPQAQQKSLLQQLLTE
CREB
  effect on basal and forskolin-stimulated transcriptional activities of CREB: did not affect
RXR
  effect on RXR transcriptional activity: enhance
hPR; ERE2-TATA-CAT reporter with hPRB, with or without ligand
  effect on reporter construct activity in the absence of PR binding site: no effect
hPR; HeLa cells, 3 μg SRC-1, R5020 2×10^−8 M, PRE2-TATA-CAT
  effect on PR transcriptional activity: enhance
hPR; HeLa cells, SRC-1 coexpressed, R5020 plus RU486
  effect on RU486-antagonized receptor transcriptional activity: unable to augment and/or recover to any extent
hPR; HeLa cells, full-length SRC-1 cDNA (3 μg) coexpressed with hPR, 2×10^−8 M R5020, mean of seven experiments ± SEM
  induction over the hormone-induced receptor activity: 14.0±3.3 fold
hPR; HeLa cells, no hormone, in the absence or presence of SRC-1
  activity of ligand-free hPR on the reporter: minimal activity
hPR; coexpression of SRC-1 with receptor in mammalian cells, summary statements
  enhancement of hormone-induced transcriptional activity: > 10 fold
E2F
  effect on E2F transcriptional activity: did not alter
GAL4-VP16
  effect on GAL4-VP16 transcriptional activity: enhanced
